Source: patent publication US20200206304A1, “METHODS AND COMPOSITIONS FOR EFFICIENT DELIVERY THROUGH MULTIPLE BIO BARRIERS” (Cedars-Sinai Medical Center, priority 2017, published 2020)

Legend:
[1] = Zeta potential measurements (Zetasizer Nano ZS90); type: physicochemical; conditions: in PBS; voltage 150 mV
Protocol: Zeta Potential Measurements: Synthesized conjugates were characterized with respect to their ζ potential using a Zetasizer Nano ZS90 (Malvern Instruments, Malvern, UK). Ten microliter aliquots of nanoconjugate samples were diluted in 0.99 mL PBS, and the voltage applied was 150 mV. Data represent the mean of three measurements±their standard deviation.

[2] = Dynamic light scattering, hydrodynamic diameter and PDI; type: physicochemical; conditions: DLS in PBS, conjugates without attached rhodamine
Protocol: Dynamic Light Scattering: Synthesized conjugates were characterized using a Zetasizer Nano ZS90 (Malvern Instruments, Malvern, UK). Ten microliter aliquots of nanoconjugate samples were diluted in 0.99 mL PBS and were measured 3 times using a clear cuvette. Data represent the mean of three measurements and polydispersity index.

neurons and astroglia = conditions: mouse, in vivo
Protocol: Neuronal and glial counterstaining: In FIGS. 27A-27C, brain tissue from drug-injected mice was counterstained to determine if our nanoconjugates are taken up by neurons or glia. Cryosections ([…]) were air-dried for 10 min, fixed with 2% paraformaldehyde for 5 min, and then rinsed three times with PBS. […] The antibodies anti-Neun (Abcam, Cambridge, Mass., USA; AB104225) and anti-GFAP (Neuromics, Edina, Minn., USA; C1122102) were then diluted 1:500 in PBS-T and tissue sections incubated simultaneously with antibody solutions overnight at 4° C. in a humid chamber. Tissue sections were then washed five times with PBS-T and incubated in appropriate secondary antibody diluted 1:250 in PBS-T, for 2-4 h. After five washes in PBS at room temperature, sections were mounted between coverslips in Fluoromount-G with DAPI.
To this end, after systemic injection of our D-conjugates we counterstained brain tissue sections of hippocampus and cortex with anti-Neun to label neurons, and with anti-GFAP to label astroglia (FIGS. 27A-27C) and inspected the stained sections for red fluorescent particulates. […] Positive neurons and glia cells were counted after systemic injection of conjugates containing D1, D3, AC189 peptides, and of a control PBS (FIGS. 27A-27C).

Aβ plaque = target: T1, Aβ plaque (Homo sapiens, UniProt P05067); experiment: Percentage of total plaques labeled by mini nanodrugs in AD mice; type: in vivo,  (B6.Cg-Tg (APPswe/PS1ΔE9) 85Dbo/J hemizygous) mice; conditions: injected dose 8X (0.55 μmol/Kg)
T1 construct: tissue Jackson Laboratories; host or cells: brain of 6-8 month old APPswe/PS1ΔE9 transgenic mice, plaques labelled in vivo after iv injection and counterstained on sections
Protocol: Slides were air dries and fixed using freshly diluted 2% PFA for 5 minutes. The PFA was washed 3 timed with PBS, and brains were covered with 70% EtOH for 5 minutes before washing with dH2O for 2 minutes. 1× Amylo-Glo (Biosenses, #TR-300-AG 100×, diluted with PBS) was then added for 10 minutes. The slides were then washed with PBS (5 minutes) and dH2O (15 seconds) and mounted (Fluoromount-G, No DAPI, Invitrogen), and stored at 4° C. prior to imaging.
Brains were collected and preserved in OTC for immunostaining.

[3] = sagittal sinus, 0.068 μmol/kg
[4] = system: LRP-1 transcytosis pathway; conditions: 70-fold molar excess of P/LLL (40%)
[5] = comparison, Israel et al., 2019; cited from earlier work
[6] = system: blood-brain barrier (BBB); conditions: Israel et al., 2019; cited from earlier work

T1 sequence (P05067 672-713 limits assumed): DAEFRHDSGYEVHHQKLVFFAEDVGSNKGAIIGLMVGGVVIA

## PMLA/LLL/AP2/rhodamine [P/LLL/AP2]
[1]
  ζ potential: −11.6 mV
[2]
  Hydrodynamic diameter (volume mode): 4.45 nm
  PDI: (0.39)
[2]; listed as P/LLL/AP-2
  PDI: 0.39
Neurons and astroglia
  cell association in GFAP and NEUN staining: no cell association
Aβ plaque
  Percentage of total plaques labeled by the reagents: 1.23%
[3]
  optical half-life (optically measured serum clearance): 1.22 h
[4]
  competition by unlabeled P/LLL (40%): did not exhibit competition
cortex, 120 min, 0.068 μmol/kg injection
  estimated parenchyma concentration: 0.049 ± 0.001 µmol/mL
Within 120 minutes after i.v. administration
  percentage of free serum drug detected in the brain: ≥ 40%
[5]
  half-life in blood: 1.28 h
[6]
  half-life of first decline in brain parenchyma: > 2 h
  time independent plateau in parenchyma: > 240 min
